The values below come from patent US20090192084A1.

The target of one test is PLAP (human) (UniProt Q9Y263). Description: Flag co-IP, 293 cells, MudPIT MS.
The next test has as its target T1, VCIP135 (human) (UniProt Q96JH7).
T1 sequence (looked up): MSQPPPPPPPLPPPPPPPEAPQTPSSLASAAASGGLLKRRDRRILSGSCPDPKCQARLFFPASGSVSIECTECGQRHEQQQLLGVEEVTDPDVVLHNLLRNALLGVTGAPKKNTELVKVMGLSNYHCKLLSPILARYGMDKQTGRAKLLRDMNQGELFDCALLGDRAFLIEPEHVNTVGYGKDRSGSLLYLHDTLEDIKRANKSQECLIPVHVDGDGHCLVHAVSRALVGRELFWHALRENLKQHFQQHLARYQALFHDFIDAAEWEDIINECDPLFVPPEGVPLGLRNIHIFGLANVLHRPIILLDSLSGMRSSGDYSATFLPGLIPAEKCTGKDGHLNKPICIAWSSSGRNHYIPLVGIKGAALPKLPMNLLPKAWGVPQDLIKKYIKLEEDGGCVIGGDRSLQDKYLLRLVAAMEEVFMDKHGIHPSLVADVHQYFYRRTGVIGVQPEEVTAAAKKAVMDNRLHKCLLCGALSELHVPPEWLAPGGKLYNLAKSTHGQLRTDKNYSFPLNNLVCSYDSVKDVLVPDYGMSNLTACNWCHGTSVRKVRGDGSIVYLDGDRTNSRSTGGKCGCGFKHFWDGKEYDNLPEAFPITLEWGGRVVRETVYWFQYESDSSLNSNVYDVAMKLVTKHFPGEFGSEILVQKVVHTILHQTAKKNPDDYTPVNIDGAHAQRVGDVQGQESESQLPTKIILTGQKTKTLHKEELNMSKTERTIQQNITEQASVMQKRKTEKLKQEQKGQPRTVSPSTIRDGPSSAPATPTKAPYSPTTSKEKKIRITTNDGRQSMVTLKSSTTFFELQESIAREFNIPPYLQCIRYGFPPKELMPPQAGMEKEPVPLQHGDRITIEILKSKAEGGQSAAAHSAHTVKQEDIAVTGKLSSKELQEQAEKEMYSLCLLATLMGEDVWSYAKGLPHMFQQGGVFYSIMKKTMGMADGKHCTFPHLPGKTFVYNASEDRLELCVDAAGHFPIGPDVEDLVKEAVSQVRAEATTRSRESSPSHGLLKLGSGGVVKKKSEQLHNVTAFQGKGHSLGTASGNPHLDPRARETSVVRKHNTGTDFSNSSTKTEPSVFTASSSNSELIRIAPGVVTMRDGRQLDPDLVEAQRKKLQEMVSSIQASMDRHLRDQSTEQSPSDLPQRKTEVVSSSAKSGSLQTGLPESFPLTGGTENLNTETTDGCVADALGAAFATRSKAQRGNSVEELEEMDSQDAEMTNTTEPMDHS
Description: Flag co-IP, 293 cells, MudPIT MS.

For the next test, the target named is endogenous NPL4 (human) (UniProt Q8TAT6). Description: Flag co-IP, 293 cells, MudPIT MS.
Sequence of endogenous NPL4 (human) (Q8TAT6 other isoform, or with tags, fused parts or gaps limits assumed): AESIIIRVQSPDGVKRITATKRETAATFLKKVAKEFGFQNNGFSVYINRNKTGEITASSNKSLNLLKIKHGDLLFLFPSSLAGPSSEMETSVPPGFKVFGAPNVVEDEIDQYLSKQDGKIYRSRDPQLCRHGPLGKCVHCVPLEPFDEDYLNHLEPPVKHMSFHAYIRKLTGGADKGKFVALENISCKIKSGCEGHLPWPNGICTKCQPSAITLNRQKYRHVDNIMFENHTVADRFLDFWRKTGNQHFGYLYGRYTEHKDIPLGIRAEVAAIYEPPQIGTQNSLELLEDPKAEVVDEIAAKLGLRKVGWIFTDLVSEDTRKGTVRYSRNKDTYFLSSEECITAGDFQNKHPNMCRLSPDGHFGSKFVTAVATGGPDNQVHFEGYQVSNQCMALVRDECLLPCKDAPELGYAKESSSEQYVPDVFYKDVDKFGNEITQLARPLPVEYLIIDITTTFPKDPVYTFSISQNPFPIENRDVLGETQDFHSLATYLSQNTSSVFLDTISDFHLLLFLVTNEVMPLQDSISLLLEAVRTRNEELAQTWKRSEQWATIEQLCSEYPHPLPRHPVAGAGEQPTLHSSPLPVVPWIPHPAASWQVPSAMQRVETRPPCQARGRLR
The target of another test is endogenous p97 (human) (UniProt P55072). Description: Flag co-IP, 293 cells, MudPIT MS.
Sequence of endogenous p97 (human) (P55072 2-806 limits assumed): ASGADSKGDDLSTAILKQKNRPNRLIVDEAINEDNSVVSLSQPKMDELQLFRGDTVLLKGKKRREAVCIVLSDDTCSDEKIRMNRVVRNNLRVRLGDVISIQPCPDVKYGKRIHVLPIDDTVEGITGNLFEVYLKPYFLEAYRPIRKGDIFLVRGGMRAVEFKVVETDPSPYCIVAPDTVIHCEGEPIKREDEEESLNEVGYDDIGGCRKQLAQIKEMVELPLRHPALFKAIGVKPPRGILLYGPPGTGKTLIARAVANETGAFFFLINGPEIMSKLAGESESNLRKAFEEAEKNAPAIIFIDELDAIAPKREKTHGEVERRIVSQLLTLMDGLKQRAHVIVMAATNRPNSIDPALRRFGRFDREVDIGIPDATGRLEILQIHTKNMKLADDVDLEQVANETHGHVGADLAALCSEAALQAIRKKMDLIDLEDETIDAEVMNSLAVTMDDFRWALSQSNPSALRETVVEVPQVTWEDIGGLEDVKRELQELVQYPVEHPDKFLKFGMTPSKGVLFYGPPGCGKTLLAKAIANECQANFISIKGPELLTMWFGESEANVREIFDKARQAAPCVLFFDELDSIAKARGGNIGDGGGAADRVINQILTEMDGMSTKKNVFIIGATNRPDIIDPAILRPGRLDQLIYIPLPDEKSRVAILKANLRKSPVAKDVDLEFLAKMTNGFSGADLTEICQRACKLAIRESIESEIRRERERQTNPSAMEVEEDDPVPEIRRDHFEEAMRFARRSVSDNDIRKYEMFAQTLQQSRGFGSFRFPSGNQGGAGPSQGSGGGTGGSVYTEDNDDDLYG
For test [1], the target named is DNA damage-binding protein I. DDB1 (human) (UniProt Q16531). Description: Flag co-IP, MudPIT MS, DMSO.
A further test addresses EDD1/UBR5 (human) (UniProt O95071). Description: Flag co-IP, MudPIT MS, DMSO.
Test [2] deals with Galectin-3 binding protein. LG3BP (human) (UniProt Q08380). Description: Flag co-IP, MudPIT MS, DMSO.
Sequence of Galectin-3 binding protein. LG3BP (human) (Q08380 19-585 limits assumed): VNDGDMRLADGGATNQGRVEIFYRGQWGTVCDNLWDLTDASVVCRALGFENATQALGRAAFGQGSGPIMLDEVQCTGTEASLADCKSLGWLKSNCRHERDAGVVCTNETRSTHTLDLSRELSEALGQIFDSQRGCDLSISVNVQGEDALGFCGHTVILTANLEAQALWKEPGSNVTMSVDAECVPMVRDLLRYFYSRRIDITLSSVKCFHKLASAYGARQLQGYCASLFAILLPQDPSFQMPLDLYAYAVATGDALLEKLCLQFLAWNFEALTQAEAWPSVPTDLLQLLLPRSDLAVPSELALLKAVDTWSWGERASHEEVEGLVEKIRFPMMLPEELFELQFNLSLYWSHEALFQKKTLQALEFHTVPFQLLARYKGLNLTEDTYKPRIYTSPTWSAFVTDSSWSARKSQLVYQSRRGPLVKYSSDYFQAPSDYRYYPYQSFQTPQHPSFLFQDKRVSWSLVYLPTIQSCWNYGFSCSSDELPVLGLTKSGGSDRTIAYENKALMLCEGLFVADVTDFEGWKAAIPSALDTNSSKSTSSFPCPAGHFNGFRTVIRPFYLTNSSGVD
The target of test [3] is Ubiquitin conjugation factor E4 B, UBE4B (Ufd2ortholog) (human) (UniProt O95155). Description: Flag co-IP, MudPIT MS, DMSO.
Sequence of Ubiquitin conjugation factor E4 B, UBE4B (Ufd2ortholog) (human) (O95155 whole entry): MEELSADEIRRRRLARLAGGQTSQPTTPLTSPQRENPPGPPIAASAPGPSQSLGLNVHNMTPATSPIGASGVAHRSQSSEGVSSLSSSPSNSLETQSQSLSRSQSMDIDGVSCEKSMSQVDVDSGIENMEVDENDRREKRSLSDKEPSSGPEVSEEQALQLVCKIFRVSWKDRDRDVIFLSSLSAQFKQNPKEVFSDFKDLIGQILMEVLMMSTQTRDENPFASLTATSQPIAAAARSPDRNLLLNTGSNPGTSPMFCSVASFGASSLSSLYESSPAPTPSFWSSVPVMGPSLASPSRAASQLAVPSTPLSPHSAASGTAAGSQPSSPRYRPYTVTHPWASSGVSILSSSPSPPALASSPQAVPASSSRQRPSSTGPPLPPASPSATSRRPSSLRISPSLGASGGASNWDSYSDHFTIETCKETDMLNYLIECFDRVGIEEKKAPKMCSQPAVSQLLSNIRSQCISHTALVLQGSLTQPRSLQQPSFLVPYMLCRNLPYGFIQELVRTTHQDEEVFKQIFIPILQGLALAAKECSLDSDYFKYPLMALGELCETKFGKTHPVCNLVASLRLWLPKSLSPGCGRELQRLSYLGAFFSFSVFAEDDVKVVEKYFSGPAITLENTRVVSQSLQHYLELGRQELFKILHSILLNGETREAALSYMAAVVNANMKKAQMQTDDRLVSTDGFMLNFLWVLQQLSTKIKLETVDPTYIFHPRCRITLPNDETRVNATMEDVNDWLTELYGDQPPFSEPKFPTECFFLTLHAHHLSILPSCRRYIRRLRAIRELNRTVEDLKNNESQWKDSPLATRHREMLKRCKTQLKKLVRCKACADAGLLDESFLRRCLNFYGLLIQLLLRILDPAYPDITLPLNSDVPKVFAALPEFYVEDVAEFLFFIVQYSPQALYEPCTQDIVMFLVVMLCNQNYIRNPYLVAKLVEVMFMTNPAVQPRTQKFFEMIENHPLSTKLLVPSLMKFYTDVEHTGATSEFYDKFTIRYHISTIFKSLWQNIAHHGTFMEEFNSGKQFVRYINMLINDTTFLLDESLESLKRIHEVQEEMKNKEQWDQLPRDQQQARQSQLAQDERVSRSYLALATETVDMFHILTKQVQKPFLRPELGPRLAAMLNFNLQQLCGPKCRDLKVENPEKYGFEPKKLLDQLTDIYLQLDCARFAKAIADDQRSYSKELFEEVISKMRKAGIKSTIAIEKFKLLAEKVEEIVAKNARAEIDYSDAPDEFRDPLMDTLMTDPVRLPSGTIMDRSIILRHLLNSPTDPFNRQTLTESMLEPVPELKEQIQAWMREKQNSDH
A further test concerns the target Cullin 2 (human) (UniProt Q13617). Description: Flag co-IP, MudPIT MS, MG132.
Test [4] addresses DNA damage-binding protein I. DDB1 (human) (UniProt Q16531). Description: Flag co-IP, MudPIT MS, MG132.
The target of test [5] is Retinoblastoma-associated factor 600, UBR4 (human) (UniProt Q5T4S7). Description: Flag co-IP, MudPIT MS, MG132.
For test [6], the target named is Ubiquitin conjugation factor E4 B, UBE4B (Ufd2ortholog) (human) (UniProt O95155). Description: Flag co-IP, MudPIT MS, MG132.
For another test, the target named is gp78 (human) (UniProt Q9UKV5). Description: Flag co-IP, MudPIT MS, MG132.
A further test addresses T2, endogenous UFD1 (human) (UniProt Q92890).
T2 sequence (looked up): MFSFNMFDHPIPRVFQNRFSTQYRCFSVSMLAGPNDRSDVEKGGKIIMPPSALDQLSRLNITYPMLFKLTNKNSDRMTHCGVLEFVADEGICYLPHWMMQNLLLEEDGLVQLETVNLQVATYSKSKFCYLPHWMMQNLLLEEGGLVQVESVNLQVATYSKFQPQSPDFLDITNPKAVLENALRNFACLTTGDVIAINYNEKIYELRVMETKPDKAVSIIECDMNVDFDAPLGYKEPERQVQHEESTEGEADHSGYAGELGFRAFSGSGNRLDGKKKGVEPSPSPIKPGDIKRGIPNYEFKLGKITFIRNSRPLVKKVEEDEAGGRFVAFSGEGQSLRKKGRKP
Description: Flag co-IP, 293 cells, MudPIT MS.

Sequence of PLAP (human) (Q9Y263 whole entry): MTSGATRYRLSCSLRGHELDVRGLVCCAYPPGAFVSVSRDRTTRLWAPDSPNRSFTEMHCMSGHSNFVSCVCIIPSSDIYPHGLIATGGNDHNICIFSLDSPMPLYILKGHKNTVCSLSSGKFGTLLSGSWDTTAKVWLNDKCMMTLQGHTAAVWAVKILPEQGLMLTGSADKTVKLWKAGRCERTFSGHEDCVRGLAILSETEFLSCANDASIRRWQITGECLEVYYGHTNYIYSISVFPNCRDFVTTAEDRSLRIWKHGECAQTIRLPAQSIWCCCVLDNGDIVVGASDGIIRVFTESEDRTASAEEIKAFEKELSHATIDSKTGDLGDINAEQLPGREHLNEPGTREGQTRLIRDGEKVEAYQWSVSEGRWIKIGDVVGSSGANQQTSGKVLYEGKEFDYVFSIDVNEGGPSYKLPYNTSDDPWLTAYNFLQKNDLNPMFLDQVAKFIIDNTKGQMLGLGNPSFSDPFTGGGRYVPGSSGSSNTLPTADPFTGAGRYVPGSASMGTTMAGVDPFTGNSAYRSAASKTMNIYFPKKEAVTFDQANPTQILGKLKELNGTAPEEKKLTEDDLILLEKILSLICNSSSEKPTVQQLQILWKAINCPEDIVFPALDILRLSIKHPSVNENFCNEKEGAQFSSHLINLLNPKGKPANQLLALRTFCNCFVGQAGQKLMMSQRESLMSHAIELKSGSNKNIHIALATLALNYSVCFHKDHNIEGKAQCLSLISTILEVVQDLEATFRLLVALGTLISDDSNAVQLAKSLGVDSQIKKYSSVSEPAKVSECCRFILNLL
Sequence of Cullin 2 (human) (Q13617 whole entry): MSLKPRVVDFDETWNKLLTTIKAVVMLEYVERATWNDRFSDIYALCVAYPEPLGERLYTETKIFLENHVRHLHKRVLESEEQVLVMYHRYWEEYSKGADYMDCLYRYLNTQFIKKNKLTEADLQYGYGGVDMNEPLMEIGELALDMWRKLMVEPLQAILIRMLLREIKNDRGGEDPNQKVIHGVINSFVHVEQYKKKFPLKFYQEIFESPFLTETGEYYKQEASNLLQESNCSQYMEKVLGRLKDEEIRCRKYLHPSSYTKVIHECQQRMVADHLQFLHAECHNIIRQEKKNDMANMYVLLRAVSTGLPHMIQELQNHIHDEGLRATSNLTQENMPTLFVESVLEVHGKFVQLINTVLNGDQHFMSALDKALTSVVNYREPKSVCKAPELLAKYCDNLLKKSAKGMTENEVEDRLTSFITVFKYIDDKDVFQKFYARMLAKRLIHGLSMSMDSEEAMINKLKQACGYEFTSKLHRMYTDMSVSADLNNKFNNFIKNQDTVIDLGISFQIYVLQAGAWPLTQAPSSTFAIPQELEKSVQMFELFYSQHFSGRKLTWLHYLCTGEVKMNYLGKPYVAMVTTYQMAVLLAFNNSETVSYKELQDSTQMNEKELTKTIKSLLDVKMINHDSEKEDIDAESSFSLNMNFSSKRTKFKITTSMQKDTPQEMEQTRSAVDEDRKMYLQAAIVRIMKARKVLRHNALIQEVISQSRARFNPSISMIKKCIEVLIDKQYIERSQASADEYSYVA

With Flag-UBXD5, the sequence count with PLAP (human) came out at 6; with VCIP135 (human), 20; in the test with endogenous NPL4 (human) it was 2; with endogenous p97 (human) it was 124. For the same substance, the sequence coverage in the test with PLAP (human) was 11.6%; with VCIP135 (human), 27.5%; in the test with endogenous NPL4 (human) it was 5.2%; in the test with endogenous p97 (human) it was 75.5%. Also, the spectrum count worked out at 6 in the test with PLAP (human), 25 in the test with VCIP135 (human), 3 in the test with endogenous NPL4 (human) and 783 with endogenous p97 (human).

In the test with PLAP (human), Flag-UBXD1 (from UniProt Q9BZV1 1-441) displayed a sequence count of 3, a sequence coverage of 7.5% and a spectrum count of 3. Further, in the test with VCIP135 (human), the sequence count was 2, the sequence coverage came out at 2.5% and the spectrum count was determined as 2.

With Flag-p47 (from UniProt O35987 1-370), the abundance factor (AF) in test [1] was determined as 0.5; with EDD1/UBR5 (human), 0.2; in test [2], 1.5; in test [3], 1.1; in the test with Cullin 2 (human), 1; in [4] it was 1. Besides, the figures for the abundance factor (AF) (in test [5]; in test [6]; with gp78 (human)) were 0.2, 1.4 and 1.7, respectively. For the same substance, the sequence count in test [1] is 2; with EDD1/UBR5 (human), 2; in test [2] it was 3; in test [3], 5; with Cullin 2 (human), 2; in test [4] it was 3. The sequence count in test [5] amounted to 2; in test [6], 5; with gp78 (human), 3; with PLAP (human) it was 27. The spectrum count in [1] came out at 2; with EDD1/UBR5 (human) it was 2; in test [2], 3; in test [3] it was 5; in the test with Cullin 2 (human) it was 2; in [4] it was 3. Moreover, the spectrum count in test [5] came to 3; in test [6], 5; with gp78 (human), 3; with PLAP (human), 38. In the test with PLAP (human), this substance had a sequence coverage of 42.9%.

In the test with PLAP (human), Flag-ASPL (from UniProt Q9BZE9 1-553) returned a sequence count of 10, a sequence coverage of 22.8% and a spectrum count of 10.

Consider Flag-UBXD3 (from UniProt Q96LJ8 1-280), for which, in the test with endogenous NPL4 (human), the sequence count amounted to 7, the sequence coverage is 14.1% and the spectrum count worked out at 9. Besides, in the test with endogenous UFD1 (human), the sequence count was 3, the sequence coverage is 12.2% and the spectrum count was determined as 3.

Turning to Flag-UBXD6 (from UniProt O00124 1-270), in the test with VCIP135 (human), the sequence count was determined as 2, the sequence coverage was determined as 2.7% and the spectrum count came out at 2. In the test with endogenous NPL4 (human), this substance showed a sequence count of 9, a sequence coverage of 16.5% and a spectrum count of 16. In the test with endogenous UFD1 (human), this substance had a sequence count of 4, a sequence coverage of 19.2% and a spectrum count of 5.
